The values below come from the RNAGym collection of RNA variant scans (doi:10.7554/elife.80360).

B1: Twister Ribozyme (parent)
chain: AACACUGCCAAUGCCGGUCCCAAGCCCGGAUAAAAGUGGAGGGGGCGG

This series covers variants of B1. Description: self-cleavage, relative activity (ratio to wild type); higher = more cleavage; co-transcriptional.
On to AACACUGCCAAUGCCGGUCCCAAGCCAGGAUAGAAGUGGAGGGGGCGG, for which the self-cleavage turned out to be 0.294. The result for AACACUGCCAAUGCCUGUCCAAAGCCCGGAUAAAAGUGGAGGGGGCGG reads 0.137; that for AACACGGCCAAUGCCGGUCCCAUGCCCGGAUAAAAGUGGAGGGGGCGG, 0.0909; that for AACACUGCCAAUGCCGGUCCCCAGCCCGGAUAAAAGUGGAAGGGGCGG, 0.326. For AACACUGCGAAUGCCGGUCCCAAGCCCGGAUAAAAGUGGACGGGGCGG the value was 0.145; for AACACUGCCAUUGCCGGUUCCAAGCCCGGAUAAAAGUGGAGGGGGCGG, 0.933; for AACACUGCCAAUGCCGGUACCAAGCCCCGAUAAAAGUGGAGGGGGCGG, 0.135.

As for AACACUGCCAAUGCCGCUCCCAAGCACGGAUAAAAGUGGAGGGGGCGG, the self-cleavage was 0.286. For AACACUGCCAAUGACGGUCCCAAGGCCGGAUAAAAGUGGAGGGGGCGG, the self-cleavage came out at 0.657. Turning to AACACUGCCAAUGGCGGUCUCAAGCCCGGAUAAAAGUGGAGGGGGCGG, the self-cleavage is 0.25.

AACACUGCCAAUGCCGGUCCCAAUCCCGGAUAAAAGUGGAGGGGGCAG: the self-cleavage amounted to 0.094.

AACACUGCCUAUGCCGGUCCCAAGCCCGGAUAAAAGUUGAGGGGGCGG: the self-cleavage stood at 0.863. For AACACUGCCAAUGCCGGUCCCAAGCACGGAUAAAAGUGGAGGGGCCGG the value was 0.123; for AACACUGCCAAGGCCGGUCCCAAGCCCGGAUAAAAGUGGAGGGGGCGC, 0.929. In the case of AACACUGCCAAUGCCGGUCCCACGCCCGUAUAAAAGUGGAGGGGGCGG, the self-cleavage was found to be 0.124. For AUCACUGCCAAUGCCGGUCCCUAGCCCGGAUAAAAGUGGAGGGGGCGG the value was 0.11; for AACACUGCCAAUGCCGGUCCCAAGCCCGGAUAAAAGUGGAGGGCGGGG, 0.254.

Regarding AACACUGCCAAUGCCGGUCCCAAGCCCGGAUGAAAGUGGAGGGGGCGA, the self-cleavage came to 0.925. For the variant AACACUGCCGAUGCCGGACCCAAGCCCGGAUAAAAGUGGAGGGGGCGG, the self-cleavage was found to be 0.841. For AACACUGCGAAUGCCGGUCCCGAGCCCGGAUAAAAGUGGAGGGGGCGG the value was 0.0988; for AACACUGCCAUUGCCGGUCCCAACCCCGGAUAAAAGUGGAGGGGGCGG, 0.0932. The result for AACACUGCCAAUGGCGGUCCCAAGCCCGGAUAAAAAUGGAGGGGGCGG reads 0.0659; that for AACACGGCCAAUGCCGGUCCCAAGCCCGGACAAAAGUGGAGGGGGCGG, 0.365; that for AACACUGGCAAUGCCGGUCCCAAGCCCGAAUAAAAGUGGAGGGGGCGG, 0.3. For UACACUGCCAAUGCCGGUGCCAAGCCCGGAUAAAAGUGGAGGGGGCGG the value was 0.0665; for AACAAUGCCAAUGCCGGUCCCAAGCGCGGAUAAAAGUGGAGGGGGCGG, 0.0639; for AACACUACCAAUGCCGGUCCCAAGCCCGGAUAAAAGGGGAGGGGGCGG, 0.162.

For AACACUGCUAAUGCCGGUCCCAAGCCCGCAUAAAAGUGGAGGGGGCGG, the self-cleavage was determined as 0.242. For AACAAUGCCAAUGCCGGUCCCAAGCCCGGAUAAAAGUGGAGGCGGCGG the value was 0.118; for CACACUGCCAAUGCCGGUCCCAAGCCCAGAUAAAAGUGGAGGGGGCGG, 0.174. For AACUCUGCCAAUGCCGGUCCCUAGCCCGGAUAAAAGUGGAGGGGGCGG the value was 0.0795; for AGCACUGCCAAUGCCGGUCCCAAGCCCGGAUAAAAGUGGAGCGGGCGG, 0.157. The result for AACACUGCCAAUGUCGGUCCCAAGCCCGGAUAAAAGUGGAGGGUGCGG reads 1.15; that for AACACUGCCAAUGCCGGUCCCAAGCCCGGAUUGAAGUGGAGGGGGCGG, 0.891; that for AACACUGCCAAUGUCGGUCCCAAGCCCGGCUAAAAGUGGAGGGGGCGG, 1.08. In the case of AACACUGCCAAUGCCGGUGCCAAGCCCGGAUAAAAGUGGAGGGGGCUG, the self-cleavage came to 0.138. For AACACUGCCAGUGCCGGUCCCAAGCCCGGAUAAAAGUGGAGAGGGCGG the value was 0.441. The result for AACACUGUCAAUGCCCGUCCCAAGCCCGGAUAAAAGUGGAGGGGGCGG reads 0.199; that for AACACUGCCAAUGCAGGUCCCAAGCCCGGAUAAAAGUGGAGGGGGCCG, 0.253. On to AACACUGCCAAUGCCGGUCCCAAGCCAGGGUAAAAGUGGAGGGGGCGG, for which the self-cleavage worked out at 0.529. With AACACUGCCAAUGCCGGUCCCAAGCACGGAUAAAAGUGGAGGGAGCGG, the self-cleavage came out at 0.562. Take AACACUGCCAAUGCCGGUCCCAGGCCCGGAUAAAAGUGGAGCGGGCGG: the self-cleavage worked out at 0.176. For AACACUGCCAAUGCCGGUCCCAAGCCCGGAGAAAAGUGGAGGGUGCGG the value was 0.882; for AACACUGCCAAUGCCGGUCCCAAGCCCUUAUAAAAGUGGAGGGGGCGG, 0.972; for AACACUGCCAAUGCCGGUCCCAAGCCCGCAUAGAAGUGGAGGGGGCGG, 0.573.

As to AUCACUGCCAAUGUCGGUCCCAAGCCCGGAUAAAAGUGGAGGGGGCGG, the self-cleavage is 0.591. For AACACUGACAAUGCCGGUCCCAAGCCCGGAUAAAAGUGGAGGUGGCGG the value was 0.119.

For AACACUGCGAAUGCCGGCCCCAAGCCCGGAUAAAAGUGGAGGGGGCGG, the self-cleavage came to 0.0886.

Consider AACACUGCCAAUGCCGGUCCCAAGCCCGGAAAAAAGUGGAGGAGGCGG, for which the self-cleavage came out at 0.23. The result for AACACUGCCAAUACAGGUCCCAAGCCCGGAUAAAAGUGGAGGGGGCGG reads 0.46; that for AACACUGCCAAUGCCUGUCCCAAGCCCGGAUAAAAGUGGAGGCGGCGG, 0.183. For AACACUGCCAAUGCCGUUCCCAAGCCCGGAAAAAAGUGGAGGGGGCGG the value was 0.471. AACACUGCCAAUGCCGGCCCCAAGGCCGGAUAAAAGUGGAGGGGGCGG: the self-cleavage came out at 0.104.

As to AACACUGCCAAUGACGGUCCCAAGCCCGGAUAACAGUGGAGGGGGCGG, the self-cleavage amounted to 0.426.
